In US20100169988A1 (published 2010):

B1: SH3-containing GRB2-like protein 1 (SH3 domain protein 2B) (SH3p8) (other, mouse, UniProt Q62419 1-368, looked up)
chain: MSVAGLKKQFYKASQLVSEKVGGAEGTKLDDDFKDMEKKVDVTSKAVAEVLVRTIEYLQPNPASRAKLTMLNTVSKIRGQVKNPGYPQSEGLLGECMVRHGKELGGESNFGDALLDAGESMKRLAEVKDSLDIEVKQNFIDPLQNLCDKDLKEIQHHLKKLEGRRLDFDYKKKRQGKIPDEELRQALEKFEESKEVAETSMHNLLETDIEQVSQLSALVDAQLDYHRQAVQILEELADKLKRRVREASSRPKREFKPRPREPFELGELEQPNGGFPCAPAPKITASSSFRSSDKPIRMPSKSMPPLDQPSCKALYDFEPENDGELGFREGDLITLTNQIDENWYEGMLHGQSGFFPLSYVQVLVPLPQ
notes: also called SH3G1_MOUSE
B2: Phosphatidylethanolamine-binding protein (PEBP) (other, mouse, UniProt P70296 2-187, looked up)
chain: AADISQWAGPLCLQEVDEPPQHALRVDYAGVTVDELGKVLTPTQVMNRPSSISWDGLDPGKLYTLVLTDPDAPSRKDPKFREWHHFLVVNMKGNDISSGTVLSDYVGSGPPSGTGLHRYVWLVYEQEQPLSCDEPILSNKSGDNRGKFKVETFRKKYNLGAPVAGTCYQAEWDDYVPKLYEQLSGK
notes: also called PEBP1_MOUSE
B3: Guanine nucleotide-binding protein G(o); alpha subunit 1 (other, mouse, UniProt P18872 2-354, looked up)
chain: GCTLSAEERAALERSKAIEKNLKEDGISAAKDVKLLLLGAGESGKSTIVKQMKIIHEDGFSGEDVKQYKPVVYSNTIQSLAAIVRAMDTLGVEYGDKERKTDSKMVCDVVSRMEDTEPFSAELLSAMMRLWGDSGIQECFNRSREYQLNDSAKYYLDSLDRIGAGDYQPTEQDILRTRVKTTGIVETHFTFKNLHFRLFDVGGQRSERKKWIHCFEDVTAIIFCVALSGYDQVLHEDETTNRMHESLMLFDSICNNKFFIDTSIILFLNKKDLFGEKIKKSPLTICFPEYPGSNTYEDAAAYIQTQFESKNRSPNKEIYCHMTCATDTNNIQVVFDAVTDIIIANNLRGCGLY
notes: also called GNAO1_MOUSE
B4: 14-3-3 protein zeta/delta (Protein kinase C inhibitor protein-1) (KCIP-1) (SEZ-2) (other, mouse, UniProt P63101 1-245, looked up)
chain: MDKNELVQKAKLAEQAERYDDMAACMKSVTEQGAELSNEERNLLSVAYKNVVGARRSSWRVVSSIEQKTEGAEKKQQMAREYREKIETELRDICNDVLSLLEKFLIPNASQPESKVFYLKMKGDYYRYLAEVAAGDDKKGIVDQSQQAYQEAFEISKKEMQPTHPIRLGLALNFSVFYYEILNSPEKACSLAKTAFDEAIAELDTLSEESYKDSTLIMQLLRDNLTLWTSDTQGDEAEAGEGGEN
B5: 14-3-3 protein epsilon (14-3-3E) (other, mouse, UniProt P62259 1-255, looked up)
chain: MDDREDLVYQAKLAEQAERYDEMVESMKKVAGMDVELTVEERNLLSVAYKNVIGARRASWRIISSIEQKEENKGGEDKLKMIREYRQMVETELKLICCDILDVLDKHLIPAANTGESKVFYYKMKGDYHRYLAEFATGNDRKEAAENSLVAYKAASDIAMTELPPTHPIRLGLALNFSVFYYEILNSPDRACRLAKAAFDDAIAELDTLSEESYKDSTLIMQLLRDNLTLWTSDMQGDGEEQNKEALQDVEDENQ
B6: Fructose-bisphosphate aldolase A (Muscle-type aldolase) (Aldolase 1) (enzyme, mouse, UniProt P05064 2-364, looked up)
chain: PHPYPALTPEQKKELSDIAHRIVAPGKGILAADESTGSIAKRLQSIGTENTEENRRFYRQLLLTADDRVNPCIGGVILFHETLYQKADDGRPFPQVIKSKGGVVGIKVDKGVVPLAGTNGETTTQGLDGLSERCAQYKKDGADFAKWRCVLKIGEHTPSALAIMENANVLARYASICQQNGIVPIVEPEILPDGDHDLKRCQYVTEKVLAAVYKALSDHHVYLEGTLLKPNMVTPGHACTQKFSNEEIAMATVTALRRTVPPAVTGVTFLSGGQSEEEASINLNAINKCPLLKPWALTFSYGRALQASALKAWGGKKENLKAAQEEYIKRALANSLACQGKYTPSGQSGAAASESLFISNHAY
B7: Aconitate hydratase; mitochondrial precursor (Citrate hydro-lyase) (enzyme, mouse, UniProt Q99KI0 28-780, looked up)
chain: QRAKVAMSHFEPSEYIRYDLLEKNINIVRKRLNRPLTLSEKIVYGHLDDPANQEIERGKTYLRLRPDRVAMQDATAQMAMLQFISSGLPKVAVPSTIHCDHLIEAQVGGEKDLRRAKDINQEVYNFLATAGAKYGVGFWRPGSGIIHQIILENYAYPGVLLIGTDSHTPNGGGLGGICIGVGGADAVDVMAGIPWELKCPKVIGVKLTGSLSGWTSPKDVILKVAGILTVKGGTGAIVEYHGPGVDSISCTGMATICNMGAEIGATTSVFPYNHRMKKYLSKTGRTDIANLAEEFKDHLVPDPGCQYDQVIEINLNELKPHINGPFTPDLAHPVADVGTVAEKEGWPLDIRVGLIGSCTNSSYEDMGRSAAVAKQALAHGLKCKSQFTITPGSEQIRATIERDGYAQILRDVGGIVLANACGPCIGQWDRKDIKKGEKNTIVTSYNRNFTGRNDANPETHAFVTSPEIVTALAIAGTLKFNPETDFLTGKDGKKFKLEAPDADELPRSDFDPGQDTYQHPPKDSSGQRVDVSPTSQRLQLLEPFDKWDGKDLEDLQILIKVKGKCTTDHISAAGPWLKFRGHLDNISNNLLIGAINIENGKANSVRNAVTQEFGPVPDTARYYKKHGIRWVVIGDENYGEGSSREHAALEPRHLGGRAIITKSFARIHETNLKKQGLLPLTFADPSDYNKIHPVDKLTIQGLKDFAPGKPLKCVIKHPNGTQETILLNHTFNETQIEWFRAGSALNRMKELQQ
notes: also called Aconitase
B8: Dynamin-1 (enzyme, mouse, UniProt P39053 1-867, looked up)
chain: MGNRGMEDLIPLVNRLQDAFSAIGQNADLDLPQIAVVGGQSAGKSSVLENFVGRDFLPRGSGIVTRRPLVLQLVNSTTEYAEFLHCKGKKFTDFEEVRLEIEAETDRVTGTNKGISPVPINLRVYSPHVLNLTLVDLPGMTKVPVGDQPPDIEFQIRDMLMQFVTKENCLILAVSPANSDLANSDALKIAKEVDPQGQRTIGVITKLDLMDEGTDARDVLENKLLPLRRGYIGVVNRSQKDIDGKKDITAALAAERKFFLSHPSYRHLADRMGTPYLQKVLNQQLTNHIRDTLPGLRNKLQSQLLSIEKEVDEYKNFRPDDPARKTKALLQMVQQFAVDFEKRIEGSGDQIDTYELSGGARINRIFHERFPFELVKMEFDEKELRREISYAIKNIHGIRTGLFTPDMAFETIVKKQVKKIREPCLKCVDMVISELISTVRQCTKKLQQYPRLREEMERIVTTHIREREGRTKEQVMLLIDIELAYMNTNHEDFIGFANAQQRSNQMNKKKTSGNQDEILVIRKGWLTINNIGIMKGGSKEYWFVLTAENLSWYKDDEEKEKKYMLSVDNLKLRDVEKGFMSSKHIFALFNTEQRNVYKDYRQLELACETQEEVDSWKASFLRAGVYPERVGDKEKASETEENGSDSFMHSMDPQLERQVETIRNLVDSYMAIVNKTVRDLMPKTIMHLMINNTKEFIFSELLANLYSCGDQNTLMEESAEQAQRRDEMLRMYHALKEALSIIGDINTTTVSTPMPPPVDDSWLQVQSVPAGRRSPTSSPTPQRRAPAVPPARPGSRGPAPGPPPAGSALGGAPPVPSRPGASPDPFGPPPQVPSRPNRAPPGVPSLGAWRLNSPQGKHENRAGKARL
notes: also called DYN1_MOUSE; Dynamin I
B9: Malate dehydrogenase; mitochondrial precursor (enzyme, mouse, UniProt P08249 25-338, looked up)
chain: AKVAVLGASGGIGQPLSLLLKNSPLVSRLTLYDIAHTPGVAADLSHIETRANVKGYLGPEQLPDCLKGCDVVVIPAGVPRKPGMTRDDLFNTNATIVATLTAACAQHCPEAMVCIIANPVNSTIPITAEVFKKHGVYNPNKIFGVTTLDIVRANTFVAELKGLDPARVNVPVIGGHAGKTIIPLISQCTPKVDFPQDQLATLTGRIQEAGTEVVKAKAGAGSATLSMAYAGARFVFSLVDAMNGKEGVVECSFVQSKETECTYFSTPLLLGKKGLEKNLGIGKITPFEEKMIAEAIPELKASIKKGEDFVKNMK
B10: Gamma enolase (2-phospho-D-glycerate hydrolyase) (Neural enolase) (enzyme, mouse, UniProt P17183 2-434, looked up)
chain: SIEKIWAREILDSRGNPTVEVDLYTAKGLFRAAVPSGASTGIYEALELRDGDKQRYLGKGVLKAVDHINSRIAPALISSGISVVEQEKLDNLMLELDGTENKSKFGANAILGVSLAVCKAGAAERDLPLYRHIAQLAGNSDLILPVPAFNVINGGSHAGNKLAMQEFMILPVGAESFRDAMRLGAEVYHTLKGVIKDKYGKDATNVGDEGGFAPNILENSEALELVKEAIDKAGYTEKMVIGMDVAASEFYRDGKYDLDFKSPADPSRYITGDQLGALYQDFVRNYPVVSIEDPFDQDDWAAWSKFTANVGIQIVGDDLTVTNPKRIERAVEEKACNCLLLKVNQIGSVTEAIQACKLAQENGWGVMVSHRSGETEDTFIADLVVGLCTGQIKTGAPCRSERLAKYNQLMRIEEELGDEARFAGHNFRNPSVL
notes: also called neuron-specific enolase
B11: 14-3-3 protein gamma (other, mouse, UniProt P61982 1-247, looked up)
chain: MVDREQLVQKARLAEQAERYDDMAAAMKNVTELNEPLSNEERNLLSVAYKNVVGARRSSWRVISSIEQKTSADGNEKKIEMVRAYREKIEKELEAVCQDVLSLLDNYLIKNCSETQYESKVFYLKMKGDYYRYLAEVATGEKRATVVESSEKAYSEAHEISKEHMQPTHPIRLGLALNYSVFYYEIQNAPEQACHLAKTAFDDAIAELDTLNEDSYKDSTLIMQLLRDNLTLWTSDQQDDDGGEGNN
notes: also called 14-3-3 γ
B12: Vesicle-fusing ATPase (EC 3.6.4.6) (Vesicular-fusion protein NSF) (N-ethylmaleimide sensitive fusion protein) (enzyme, mouse, UniProt P46460 1-744, looked up)
chain: MAGRTMQAARCPTDELSLSNCAVVNEKDFQSGQHVMVRTSPNHKYIFTLRTHPSVVPGCIAFSLPQRKWAGLSIGQDIEVALYSFDKAKQCIGTMTIEIDFLQKKNIDSNPYDTDKMAAEFIQQFNNQAFSVGQQLVFSFNDKLFGLLVKDIEAMDPSILKGEPASGKRQKIEVGLVVGNSQVAFEKAENSSLNLIGKAKTKENRQSIINPDWNFEKMGIGGLDKEFSDIFRRAFASRVFPPEIVEQMGCKHVKGILLYGPPGCGKTLLARQIGKMLNAREPKVVNGPEILNKYVGESEANIRKLFADAEEEQRRLGANSGLHIIIFDEIDAICKQRGSMAGSTGVHDTVVNQLLSKIDGVEQLNNILVIGMTNRPDLIDEALLRPGRLEVKMEIGLPDEKGRLQILHIHTARMRGHQLLSADVDIKELAVETKNFSGAELEGLVRAAQSTAMNRHIKASTKVEVDMEKAESLQVTRGDFLASLENDIKPAFGTNQEDYASYIMNGIIKWGDPVTRVLDDGELLVQQTKNSDRTPLVSVLLEGPPHSGKTALAAKIAEESNFPFIKICSPDKMIGFSETAKCQAMKKIFDDAYKSQLSCVVVDDIERLLDYVPIGPRFSNLVLQALLVLLKKAPPQGRKLLIIGTTSRKDVLQEMEMLNAFSTTIHVPNIATGEQLLEALELLGNFKDKERTTIAQQVKGKKVWIGIKKLLMLIEMSLQMDPEYRVRKFLALMREEGASPLDFD

Columns and labels:
[1] = biological target: T1, APP-TAP-AICD (human, UniProt P05067 18-695); experiment: streptavidin purification of APP-TAP-AICD from brain homogenate; LTQ-FT semiquantitative method, transgenic mouse 75 vs control mouse 72
[2] = biological target: T1, APP-TAP-AICD; experiment: streptavidin purification of APP-TAP-AICD from brain homogenate; iTRAQ 116/114, transgenic mouse 75 vs control mouse 72; MALDI-TOF/TOF;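 further: relative protein abundance in the transgenic versus control pull-down, limited to proteins with high quality scores and above-average enrichment, without full normalization across the whole measurement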
Excerpt: (§1) Shown are all proteins that have high quality scores and are enriched above average in the m75 sample. Purified bait protein is given underlined. Other already known interaction partners of AICD or putatively biologically relevant proteins are given in bold. As full normalization over the entire measurement was not possible through the GPS explorer software suite, this conservative estimate had to be taken for determining the enriched vs. the non-enriched proteins. […] Ranking is in order of abundance ratio.

[3] = biological target: T2, APP-TAP-AICD (human, UniProt P05067-4 18-695); experiment: as above
T2 construct: Bait purified from brain homogenate of hemizygous transgenic mice via streptavidin; full-length APP and cleaved C-terminal stubs are isolated; also called TAP-tagged full-length human APP
Excerpt: as §1

Binder	probability that this protein is enriched [1]	iTRAQ ratio [2]	iTRAQ ratio [3]
B1	1	3.64	
B2	1	4.87	
B3			3.38
B4	0.83	4.51	
B5	1	3.94	
B6	1	4.61	
B7	1	4.53	
B8	0.82	4.57	
B9	0.86	4.71	
B10	1	4.08	
B11	0.83	4.28	
B12	0.86	4	
